Changes are numbered by the printed parent chain.
T1: LIN7C, Q9NUP9
T1 sequence (Q9NUP9 88-185, limits assumed, looked up): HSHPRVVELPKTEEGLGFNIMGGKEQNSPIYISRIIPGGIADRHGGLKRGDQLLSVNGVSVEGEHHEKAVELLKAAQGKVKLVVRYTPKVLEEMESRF

T2: RAPGEF6, Q8TEU7
T2 sequence (Q8TEU7 525-625, limits assumed, looked up): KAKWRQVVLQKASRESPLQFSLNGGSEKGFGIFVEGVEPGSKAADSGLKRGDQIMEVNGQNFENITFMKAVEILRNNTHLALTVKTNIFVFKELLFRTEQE

T3: SNTB1, Q13884
T3 sequence (Q13884 107-205, limits assumed, looked up): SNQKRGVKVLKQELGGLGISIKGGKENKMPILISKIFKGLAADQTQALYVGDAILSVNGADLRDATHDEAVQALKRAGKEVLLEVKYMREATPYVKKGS

T4: TIAM2, Q8IVF5
T4 sequence (Q8IVF5 885-986, limits assumed, looked up): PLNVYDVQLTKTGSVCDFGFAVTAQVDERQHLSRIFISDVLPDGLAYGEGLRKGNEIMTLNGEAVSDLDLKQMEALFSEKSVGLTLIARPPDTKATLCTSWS

T5: RHPN1, Q8TCX5
T5 sequence (Q8TCX5 508-602, limits assumed, looked up): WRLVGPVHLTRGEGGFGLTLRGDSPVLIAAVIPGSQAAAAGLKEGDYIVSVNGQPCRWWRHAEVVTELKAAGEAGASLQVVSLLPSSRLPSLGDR

T6: DLG3_1, Q92796
T6 sequence (Q92796 125-227, limits assumed, looked up): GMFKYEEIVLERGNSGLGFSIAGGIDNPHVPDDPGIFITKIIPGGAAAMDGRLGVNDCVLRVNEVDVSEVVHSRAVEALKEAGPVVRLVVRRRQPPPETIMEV

T7: LIN7B, Q9HAP6
T7 sequence (Q9HAP6 88-185, limits assumed, looked up): T1 sequence (Q9NUP9 88-185, limits assumed, looked up) with S2A, E13D, I35V, I40V, H65Q, K79S, K89R, S96A

T8: MPDZ_5, O75970
T8 sequence (O75970 695-796, limits assumed, looked up): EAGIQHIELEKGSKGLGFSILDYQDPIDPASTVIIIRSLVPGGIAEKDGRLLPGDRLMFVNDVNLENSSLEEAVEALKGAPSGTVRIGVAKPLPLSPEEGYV

T9: DFNB31_2, Q9P202
T9 sequence (Q9P202 274-371, limits assumed, looked up): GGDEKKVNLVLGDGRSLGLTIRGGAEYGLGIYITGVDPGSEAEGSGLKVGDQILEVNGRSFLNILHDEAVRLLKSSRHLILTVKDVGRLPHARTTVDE

T10: MPP7, Q5T2T1
T10 sequence (Q5T2T1 134-230, limits assumed, looked up): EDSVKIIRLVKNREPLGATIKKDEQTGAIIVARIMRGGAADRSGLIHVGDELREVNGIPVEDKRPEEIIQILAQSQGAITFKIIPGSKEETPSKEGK

T11: NHERF3_3, Q5T2W1
T11 sequence (Q5T2W1 238-333, limits assumed, looked up): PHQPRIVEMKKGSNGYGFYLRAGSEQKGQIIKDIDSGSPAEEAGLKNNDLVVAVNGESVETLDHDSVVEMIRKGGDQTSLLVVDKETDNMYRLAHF

T12: PTPN13_1, Q12923
T12 sequence (Q12923 1088-1188, limits assumed, looked up): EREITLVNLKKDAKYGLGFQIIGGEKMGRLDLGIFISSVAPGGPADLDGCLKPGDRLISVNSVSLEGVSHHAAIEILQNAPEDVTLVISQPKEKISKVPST

T13: PDZRN3_1, Q9UPQ7
T13 sequence (Q9UPQ7 244-349, limits assumed, looked up): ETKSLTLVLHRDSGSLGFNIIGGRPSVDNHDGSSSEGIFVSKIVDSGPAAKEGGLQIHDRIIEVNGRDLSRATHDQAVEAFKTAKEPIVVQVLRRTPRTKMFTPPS


Target: T1, LIN7C, Q9NUP9
Test: holdup assay
Parameters: key: below the threshold = too weak to quantify, mostly under pKd 3.1 to 4
Conditions: plain residues with an end cap or a label only (N-terminal biotin on a linker: ttds)

pKd	Binder
below the threshold	IYVPEAQTRL [DLGAP4, Q9Y2H0]

Target: MAGI3_2, Q5TCQ9
Sequence (Q5TCQ9 398-503): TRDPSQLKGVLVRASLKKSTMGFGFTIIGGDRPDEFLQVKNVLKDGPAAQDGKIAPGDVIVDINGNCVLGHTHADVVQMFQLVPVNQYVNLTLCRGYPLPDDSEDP
Test: holdup assay
Parameters: key: below the threshold = too weak to quantify, mostly under pKd 3.1 to 4
Conditions: plain residues with an end cap or a label only (N-terminal biotin on a linker: ttds)

pKd	Binder
below the threshold	IYVPEAQTRL [DLGAP4, Q9Y2H0]

Target: T2, RAPGEF6, Q8TEU7
Test: holdup assay
Parameters: key: below the threshold = too weak to quantify, mostly under pKd 3.1 to 4
Conditions: plain residues with an end cap or a label only (N-terminal biotin on a linker: ttds)

pKd	Binder
below the threshold	IYVPEAQTRL [DLGAP4, Q9Y2H0]

Target: FRMPD2_1, Q68DX3
Sequence (Q68DX3 770-861): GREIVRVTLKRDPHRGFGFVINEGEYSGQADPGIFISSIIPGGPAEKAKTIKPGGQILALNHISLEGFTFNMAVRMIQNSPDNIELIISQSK
Test: holdup assay
Parameters: key: below the threshold = too weak to quantify, mostly under pKd 3.1 to 4
Conditions: plain residues with an end cap or a label only (N-terminal biotin on a linker: ttds)

pKd	Binder
below the threshold	IYVPEAQTRL [DLGAP4, Q9Y2H0]

Target: Inadl_6, Q8NI35
Sequence (Q8NI35 1058-1167): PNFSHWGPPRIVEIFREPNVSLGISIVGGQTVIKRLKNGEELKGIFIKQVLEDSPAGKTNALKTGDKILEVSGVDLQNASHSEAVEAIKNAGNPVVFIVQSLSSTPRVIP
Test: holdup assay
Parameters: key: below the threshold = too weak to quantify, mostly under pKd 3.1 to 4
Conditions: plain residues with an end cap or a label only (N-terminal biotin on a linker: ttds)

pKd	Binder
below the threshold	IYVPEAQTRL [DLGAP4, Q9Y2H0]

Target: SCRIB_3, Q14160
Sequence (Q14160 999-1103): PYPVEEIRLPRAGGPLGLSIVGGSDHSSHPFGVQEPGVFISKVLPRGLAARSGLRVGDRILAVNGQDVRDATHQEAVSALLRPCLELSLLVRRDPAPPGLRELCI
Test: holdup assay
Parameters: key: below the threshold = too weak to quantify, mostly under pKd 3.1 to 4
Conditions: plain residues with an end cap or a label only (N-terminal biotin on a linker: ttds)

pKd	Binder
3.98	IYVPEAQTRL [DLGAP4, Q9Y2H0]

Target: T3, SNTB1, Q13884
Test: holdup assay
Parameters: key: below the threshold = too weak to quantify, mostly under pKd 3.1 to 4
Conditions: plain residues with an end cap or a label only (N-terminal biotin on a linker: ttds)

pKd	Binder
4.2	IYVPEAQTRL [DLGAP4, Q9Y2H0]

Target: T4, TIAM2, Q8IVF5
Test: holdup assay
Parameters: key: below the threshold = too weak to quantify, mostly under pKd 3.1 to 4
Conditions: plain residues with an end cap or a label only (N-terminal biotin on a linker: ttds)

pKd	Binder
below the threshold	IYVPEAQTRL [DLGAP4, Q9Y2H0]

Target: T5, RHPN1, Q8TCX5
Test: holdup assay
Parameters: key: below the threshold = too weak to quantify, mostly under pKd 3.1 to 4
Conditions: plain residues with an end cap or a label only (N-terminal biotin on a linker: ttds)

pKd	Binder
4.42	IYVPEAQTRL [DLGAP4, Q9Y2H0]

Target: NHERF4_1, Q86UT5-2
Sequence (Q86UT5 other isoform, or with tags, fused parts or gaps): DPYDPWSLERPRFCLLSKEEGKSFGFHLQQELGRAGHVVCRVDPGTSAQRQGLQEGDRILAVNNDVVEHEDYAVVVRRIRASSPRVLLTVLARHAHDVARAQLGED
Test: holdup assay
Parameters: key: below the threshold = too weak to quantify, mostly under pKd 3.1 to 4
Conditions: plain residues with an end cap or a label only (N-terminal biotin on a linker: ttds)

pKd	Binder
3.65	IYVPEAQTRL [DLGAP4, Q9Y2H0]

Target: T6, DLG3_1, Q92796
Test: holdup assay
Parameters: key: below the threshold = too weak to quantify, mostly under pKd 3.1 to 4
Conditions: plain residues with an end cap or a label only (N-terminal biotin on a linker: ttds)

pKd	Binder
below the threshold	IYVPEAQTRL [DLGAP4, Q9Y2H0]

Target: DLG4_1, P78352
Sequence (P78352 62-152): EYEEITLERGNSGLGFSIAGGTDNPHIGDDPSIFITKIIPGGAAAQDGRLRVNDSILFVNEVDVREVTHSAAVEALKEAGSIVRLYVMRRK
Test: holdup assay
Parameters: key: below the threshold = too weak to quantify, mostly under pKd 3.1 to 4
Conditions: plain residues with an end cap or a label only (N-terminal biotin on a linker: ttds)

pKd	Binder
below the threshold	IYVPEAQTRL [DLGAP4, Q9Y2H0]

Target: MAGI1_1, Q96QZ7
Sequence (Q96QZ7 1-106): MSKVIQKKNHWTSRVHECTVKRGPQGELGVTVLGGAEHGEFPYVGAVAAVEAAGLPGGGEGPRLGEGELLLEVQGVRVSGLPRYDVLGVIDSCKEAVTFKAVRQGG
Test: holdup assay
Parameters: key: below the threshold = too weak to quantify, mostly under pKd 3.1 to 4
Conditions: plain residues with an end cap or a label only (N-terminal biotin on a linker: ttds)

pKd	Binder
below the threshold	IYVPEAQTRL [DLGAP4, Q9Y2H0]

Target: T7, LIN7B, Q9HAP6
Test: holdup assay
Parameters: key: below the threshold = too weak to quantify, mostly under pKd 3.1 to 4
Conditions: plain residues with an end cap or a label only (N-terminal biotin on a linker: ttds)

pKd	Binder
below the threshold	IYVPEAQTRL [DLGAP4, Q9Y2H0]

Target: T8, MPDZ_5, O75970
Test: holdup assay
Parameters: key: below the threshold = too weak to quantify, mostly under pKd 3.1 to 4
Conditions: plain residues with an end cap or a label only (N-terminal biotin on a linker: ttds)

pKd	Binder
below the threshold	IYVPEAQTRL [DLGAP4, Q9Y2H0]

Target: T9, DFNB31_2, Q9P202
Test: holdup assay
Parameters: key: below the threshold = too weak to quantify, mostly under pKd 3.1 to 4
Conditions: plain residues with an end cap or a label only (N-terminal biotin on a linker: ttds)

pKd	Binder
below the threshold	IYVPEAQTRL [DLGAP4, Q9Y2H0]

Target: LNX1_3, Q8TBB1
Sequence (Q8TBB1 500-596): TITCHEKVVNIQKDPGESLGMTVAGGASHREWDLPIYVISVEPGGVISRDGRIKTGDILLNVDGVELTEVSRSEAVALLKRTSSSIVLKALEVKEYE
Test: holdup assay
Parameters: key: below the threshold = too weak to quantify, mostly under pKd 3.1 to 4
Conditions: plain residues with an end cap or a label only (N-terminal biotin on a linker: ttds)

pKd	Binder
below the threshold	IYVPEAQTRL [DLGAP4, Q9Y2H0]

Target: T10, MPP7, Q5T2T1
Test: holdup assay
Parameters: key: below the threshold = too weak to quantify, mostly under pKd 3.1 to 4
Conditions: plain residues with an end cap or a label only (N-terminal biotin on a linker: ttds)

pKd	Binder
below the threshold	IYVPEAQTRL [DLGAP4, Q9Y2H0]

Target: GORASP1, Q9BQQ3
Sequence (Q9BQQ3 1-208): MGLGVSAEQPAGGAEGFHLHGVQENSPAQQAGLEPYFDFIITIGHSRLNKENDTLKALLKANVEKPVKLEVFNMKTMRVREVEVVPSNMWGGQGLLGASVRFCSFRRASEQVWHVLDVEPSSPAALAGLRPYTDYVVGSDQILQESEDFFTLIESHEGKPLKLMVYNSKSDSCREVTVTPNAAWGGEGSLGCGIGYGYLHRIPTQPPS
Test: holdup assay
Parameters: key: below the threshold = too weak to quantify, mostly under pKd 3.1 to 4
Conditions: plain residues with an end cap or a label only (N-terminal biotin on a linker: ttds)

pKd	Binder
below the threshold	IYVPEAQTRL [DLGAP4, Q9Y2H0]

Target: MAGI2_2, Q86UL8
Sequence (Q86UL8 410-522): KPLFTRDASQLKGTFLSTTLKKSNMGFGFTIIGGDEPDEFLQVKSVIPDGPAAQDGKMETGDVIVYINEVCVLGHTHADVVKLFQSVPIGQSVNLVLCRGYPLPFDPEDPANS
Test: holdup assay
Parameters: key: below the threshold = too weak to quantify, mostly under pKd 3.1 to 4
Conditions: plain residues with an end cap or a label only (N-terminal biotin on a linker: ttds)

pKd	Binder
below the threshold	IYVPEAQTRL [DLGAP4, Q9Y2H0]

Target: T11, NHERF3_3, Q5T2W1
Test: holdup assay
Parameters: key: below the threshold = too weak to quantify, mostly under pKd 3.1 to 4
Conditions: plain residues with an end cap or a label only (N-terminal biotin on a linker: ttds)

pKd	Binder
4.14	IYVPEAQTRL [DLGAP4, Q9Y2H0]

Target: SNX27, Q96L92
Test: holdup assay
Parameters: key: below the threshold = too weak to quantify, mostly under pKd 3.1 to 4
Conditions: plain residues with an end cap or a label only (N-terminal biotin on a linker: ttds)

pKd	Binder
5.41	IYVPEAQTRL [DLGAP4, Q9Y2H0]

Target: T12, PTPN13_1, Q12923
Test: holdup assay
Parameters: key: below the threshold = too weak to quantify, mostly under pKd 3.1 to 4
Conditions: plain residues with an end cap or a label only (N-terminal biotin on a linker: ttds)

pKd	Binder
below the threshold	IYVPEAQTRL [DLGAP4, Q9Y2H0]

Target: T13, PDZRN3_1, Q9UPQ7
Test: holdup assay
Parameters: key: below the threshold = too weak to quantify, mostly under pKd 3.1 to 4
Conditions: plain residues with an end cap or a label only (N-terminal biotin on a linker: ttds)

pKd	Binder
3.94	IYVPEAQTRL [DLGAP4, Q9Y2H0]
